Experimental data as given in US10485854B2, “Method of reducing biofilms” (Lysando AG, priority 2010, dated 2019).

What was measured:
P. aeruginosa PAO1p = assay type: cell-based, Pseudomonas aeruginosa; conditions: 1.315 μM endolysin + 0.5 mM EDTA
[1] = test system: P. aeruginosa PAO1p cells; experiment: Antibacterial activity, 1 hour incubation with 100 μg/ml protein, residual colony count; conditions: for antibacterial effect in words (reduction of cell numbers compared to the negative control): 100 μg/ml protein, room temperature; for antibacterial activity as the relative inactivation (%): exponentially growing cells, room temperature (Table 6); for antibacterial activity as the relative inactivation (%) / Reduction [%]: undialyzed protein 100 μg/ml; for Reduction [%]: room temperature (Table 7)
[2] = test system: biofilm of the Staphylococcus aureus strain KS13; experiment: Biofilm reduction, crystal violet assay; conditions: 18 μg/well, 12 h; compared to the enzyme Lysostaphin

B1: PKPSP3gp10: fusion protein SEQ ID NO: 53: endolysin PSP3gp10 (SEQ ID NO: 8) with peptide SEQ ID NO: 11 (protein)
chain: MGSKRKKRKKRKPVINTHQNIAAFLDMLAYSEGTANHPLTKNRGYDVIVTGFDGSPEIFTDYSDHPFAHGRPPKVFNRRGEKSTASGRYQQLYIFWPHYKKQLALPDFSPLSQDKLAIQLIRERGAIDDIRAGRIERAVSRCRNIWASLPGAGYGQREHSLEKLVTVWRTAGGVMA
modifications: PKPSP3gp10
interaction of EDTA with the endolysin (P. aeruginosa PAO1p): synergistically

B2: (POLY)^2-gp188: fusion protein SEQ ID NO: 40: endolysin SEQ ID NO: 2 with peptide SEQ ID NO: 21 (protein)
chain: MGSKRKKRKKRKRSKRKKRKKRKNFRTKNGYRDLQALVKELGLYTGQIDGVWGKGTSSSTETLLRGYAEVVGKNTGGIGLPTTSDASGYNVITALQRNLAFLGLYSLTVDGIWGNGTLSGLDKAFEVYKERYRTPTYDIAWSGKVSPAFTAKVKDWCGVHVPNHRAPHWLMACMAFETGQTFSPSIKNAAGSEAYGLIQFMSPAANDLNVPLSVIRSMDQLTQLDLVFKYFEMWMKRGKRYTQLEDFYLTIFHPASVGKKADEVLFLQGSKAYLQNKGFDVDKDGKITLGEISSTLYTTYYKGLLPENRHVISY
modifications: (POLY)2-gp188
antibacterial effect in words (reduction of cell numbers compared to the negative control) [1]: significant reduction | antibacterial activity as the relative inactivation (%) [1]: 98.9 ± 0.4%

B3: (POLY)^2-gp144: fusion protein SEQ ID NO: 36: endolysin SEQ ID NO: 1 with peptide SEQ ID NO: 21 (protein)
chain: MGSKRKKRKKRKRSKRKKRKKRKKVLRKGDRGDEVCQLQTLLNLCGYDVGKPDGIFGNNTFNQVVKFQKDNCLDSDGIVGKNTWAELFSKYSPPIPYKTIPMPTANKSRAAATPVMNAVENATGVRSQLLLTFASIESAFDYEIKAKTSSATGWFQFLTGTWKTMIENYGMKYGVLTDPTGALRKDPRISALMGAELIKENMNILRPVLKREPTDTDLYLAHFFGPGAARRFLTTGQNELAATHFPKEAQANPSIFYNKDGSPKTIQEVYNLMDGKVAAHRK
modifications: (POLY)2-gp144
antibacterial effect in words (reduction of cell numbers compared to the negative control) [1]: significant reduction | antibacterial activity as the relative inactivation (%) [1]: 99.98±0.02%

B4: R9_pET32b: fusion protein SEQ ID NO: 47: endolysin SEQ ID NO: 1 with peptide RRRRRRRRR (SEQ ID NO: 12) (protein)
chain: AMGSRRRRRRRRRKVLRKGDRGDEVCQLQTLLNLCGYDVGKPDGIFGNNTFNQVVKFQKDNCLDSDGIVGKNTWAELFSKYSPPIPYKTIPMPTANKSRAAATPVMNAVENATGVRSQLLLTFASIESAFDYEIKAKTSSATGWFQFLTGTWKTMIENYGMKYGVLTDPTGALRKDPRISALMGAELIKENMNILRPVLKREPTDTDLYLAHFFGPGAARRFLTTGQNELAATHFPKEAQANPSIFYNKDGSPKTIQEVYNLMDGKVAAHRK
modifications: R9_pET32b
Reduction [%] [1]: 99%

B5: POLY-gp188: fusion protein SEQ ID NO: 39: endolysin ELgp188 (SEQ ID NO: 2) with peptide SEQ ID NO: 11 (protein)
chain: MGSKRKKRKKRKNFRTKNGYRDLQALVKELGLYTGQIDGVWGKGTSSSTETLLRGYAEVVGKNTGGIGLPTTSDASGYNVITALQRNLAFLGLYSLTVDGIWGNGTLSGLDKAFEVYKERYRTPTYDIAWSGKVSPAFTAKVKDWCGVHVPNHRAPHWLMACMAFETGQTFSPSIKNAAGSEAYGLIQFMSPAANDLNVPLSVIRSMDQLTQLDLVFKYFEMWMKRGKRYTQLEDFYLTIFHPASVGKKADEVLFLQGSKAYLQNKGFDVDKDGKITLGEISSTLYTTYYKGLLPENRHVISY
modifications: POLY-gp188
antibacterial effect in words (reduction of cell numbers compared to the negative control) [1]: significant reduction | antibacterial activity as the relative inactivation (%) [1]: 98.0±0.2%

B6: PK-Lysostaphin: fusion protein SEQ ID NO: 142: bacteriocin Lysostaphin (SEQ ID NO: 87) with peptide SEQ ID NO: 11 (protein)
chain: AMGKRKKRKKRKGSAHEHSAQWLNNYKKGYGYGPYPLGINGGMHYGVDFFMNIGTPVKAISSGKIVEAGWSNYGGGNQIGLIENDGVHRQWYMHLSKYNVKVGDYVKAGQIIGWSGSTGYSTAPHLHFQRMVNSFSNSTAQDPMPFLKSAGYGKAGGTVTPTPNTGWKTNKYGTLYKSESASFTPNTDIITRTTGPFRSMPQSGVLKAGQTIHYDEVMKQDGHVWVGYTGNSGQRIYLPVRTWNKSTNTLGVLWGTIKLVPRGS
modifications: PK-Lysostaphin
reduction of biofilm (crystal violet, absorption 590 nm) [2]: massive reduction

B7: PSP3gp10: unmodified globular endolysin of Salmonella typhimurium phage PSP3, SEQ ID NO: 8 (protein)
chain: MPVINTHQNIAAFLDMLAYSEGTANHPLTKNRGYDVIVTGFDGSPEIFTDYSDHPFAHGRPPKVFNRRGEKSTASGRYQQLYIFWPHYKKQLALPDFSPLSQDKLAIQLIRERGAIDDIRAGRIERAVSRCRNIWASLPGAGYGQREHSLEKLVTVWRTAGGVMA
modifications: PSP3gp10
interaction of EDTA with the endolysin (P. aeruginosa PAO1p): synergistically

B8: ELgp188: unmodified modular endolysin of Pseudomonas aeruginosa phage EL, SEQ ID NO: 2 (protein)
chain: MNFRTKNGYRDLQALVKELGLYTGQIDGVWGKGTSSSTETLLRGYAEVVGKNTGGIGLPTTSDASGYNVITALQRNLAFLGLYSLTVDGIWGNGTLSGLDKAFEVYKERYRTPTYDIAWSGKVSPAFTAKVKDWCGVHVPNHRAPHWLMACMAFETGQTFSPSIKNAAGSEAYGLIQFMSPAANDLNVPLSVIRSMDQLTQLDLVFKYFEMWMKRGKRYTQLEDFYLTIFHPASVGKKADEVLFLQGSKAYLQNKGFDVDKDGKITLGEISSTLYTTYYKGLLPENRHVISY
modifications: ELgp188
antibacterial effect in words (reduction of cell numbers compared to the negative control) [1]: do not reduce cell numbers significantly | antibacterial activity as the relative inactivation (%) [1]: 10 ± 13%

B9: pK2KZ144_pET32b_mod3: fusion protein SEQ ID NO: 49: endolysin SEQ ID NO: 1 with 38-residue linker-containing peptide SEQ ID NO: 28 (protein)
chain: AMGSKRKKRKKRKRGSGSGKRKKRKKRKRGSGSGKRKKRKKRKKVLRKGDRGDEVCQLQTLLNLCGYDVGKPDGIFGNNTFNQVVKFQKDNCLDSDGIVGKNTWAELFSKYSPPIPYKTIPMPTANKSRAAATPVMNAVENATGVRSQLLLTFASIESAFDYEIKAKTSSATGWFQFLTGTWKTMIENYGMKYGVLTDPTGALRKDPRISALMGAELIKENMNILRPVLKREPTDTDLYLAHFFGPGAARRFLTTGQNELAATHFPKEAQANPSIFYNKDGSPKTIQEVYNLMDGKVAAHRK
modifications: pK2KZ144_pET32b_mod3
Reduction [%] [1]: 99.9%

B10: POLY-gp144: fusion protein SEQ ID NO: 35: endolysin phiKZgp144 (SEQ ID NO: 1) with N-terminal peptide KRKKRKKRK (SEQ ID NO: 11) (protein)
chain: MGSKRKKRKKRKKVLRKGDRGDEVCQLQTLLNLCGYDVGKPDGIFGNNTFNQVVKFQKDNCLDSDGIVGKNTWAELFSKYSPPIPYKTIPMPTANKSRAAATPVMNAVENATGVRSQLLLTFASIESAFDYEIKAKTSSATGWFQFLTGTWKTMIENYGMKYGVLTDPTGALRKDPRISALMGAELIKENMNILRPVLKREPTDTDLYLAHFFGPGAARRFLTTGQNELAATHFPKEAQANPSIFYNKDGSPKTIQEVYNLMDGKVAAHRK
modifications: POLY-gp144
antibacterial effect in words (reduction of cell numbers compared to the negative control) [1]: significant reduction | antibacterial activity as the relative inactivation (%) [1]: 99.85±0.09%

B11: K8_pET32b: fusion protein SEQ ID NO: 48: endolysin SEQ ID NO: 1 with peptide KKKKKKKK (SEQ ID NO: 13) (protein)
chain: AMGSKKKKKKKKKVLRKGDRGDEVCQLQTLLNLCGYDVGKPDGIFGNNTFNQVVKFQKDNCLDSDGIVGKNTWAELFSKYSPPIPYKTIPMPTANKSRAAATPVMNAVENATGVRSQLLLTFASIESAFDYEIKAKTSSATGWFQFLTGTWKTMIENYGMKYGVLTDPTGALRKDPRISALMGAELIKENMNILRPVLKREPTDTDLYLAHFFGPGAARRFLTTGQNELAATHFPKEAQANPSIFYNKDGSPKTIQEVYNLMDGKVAAHRK
modifications: K8_pET32b
Reduction [%] [1]: 99%

B12: KRK_6_pET32b: fusion protein SEQ ID NO: 44: endolysin SEQ ID NO: 1 with peptide KRKKRK (SEQ ID NO: 10) (protein)
chain: AMGSKRKKRKKVLRKGDRGDEVCQLQTLLNLCGYDVGKPDGIFGNNTFNQVVKFQKDNCLDSDGIVGKNTWAELFSKYSPPIPYKTIPMPTANKSRAAATPVMNAVENATGVRSQLLLTFASIESAFDYEIKAKTSSATGWFQFLTGTWKTMIENYGMKYGVLTDPTGALRKDPRISALMGAELIKENMNILRPVLKREPTDTDLYLAHFFGPGAARRFLTTGQNELAATHFPKEAQANPSIFYNKDGSPKTIQEVYNLMDGKVAAHRK
modifications: KRK_6_pET32b
Reduction [%] [1]: 99.9%
